# Measurements published in PMC12021056, “MISP Suppresses Ferroptosis via MST1/2 Kinases to Facilitate YAP Activation in Non‐Small Cell Lung Cancer” (Advanced Science, 2025).
# T1: His-MST1 (aa301-487) (UniProt Q13043 301-487)
# T1 construct: MST1 kinase, amino acids 301-487 (holds the C-terminal SARAH domain, aa431-487); also called SARAH domain of MST1; source: E. coli BL21, purified (Ni-NTA agarose)
# T1 sequence (looked up): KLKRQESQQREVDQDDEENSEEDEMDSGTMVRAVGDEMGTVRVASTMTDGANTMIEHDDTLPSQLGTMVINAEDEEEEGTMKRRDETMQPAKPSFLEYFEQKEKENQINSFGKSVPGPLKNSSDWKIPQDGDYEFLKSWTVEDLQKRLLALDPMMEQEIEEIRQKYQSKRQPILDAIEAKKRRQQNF
# T2: His-MST2 (aa279-491) (UniProt Q13188 279-491)
# T2 construct: MST2 kinase, amino acids 279-491 (holds the C-terminal SARAH domain); also called SARAH domain of MST2; source: E. coli BL21, purified (Ni-NTA agarose)
# T2 sequence (looked up): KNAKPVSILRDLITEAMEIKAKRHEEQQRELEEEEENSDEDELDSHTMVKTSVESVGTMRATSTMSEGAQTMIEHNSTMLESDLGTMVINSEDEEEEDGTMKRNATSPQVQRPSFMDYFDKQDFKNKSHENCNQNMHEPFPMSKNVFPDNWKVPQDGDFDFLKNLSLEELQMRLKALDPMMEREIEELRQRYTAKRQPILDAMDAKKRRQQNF
# B1: GST-MISP (aa352-524) (domain or fragment, UniProt Q8IVT2 352-524, looked up)
# chain: QRDIVQETQREEDHRREGLHVGRASTPDWVSEGPQPGLRRALSSDSILSPAPDARAADPAPEVRKVNRIPPDAYQPYLSPGTPQLEFSAFGAFGKPSSLSTAEAKAATSPKATMSPRHLSESSGKPLSTKQEASKPPRGCPQANRGVVRWEYFRLRPLRFRAPDEPQQAQVPH
# notes: source: E. coli BL21, purified (glutathione S-transferase agarose)
# What was measured:
# His-MST1 (aa301-487) = biological target: T1, His-MST1 (aa301-487); assay: pull-down; 2 µg GST or GST-MISP (aa352-524) incubated with 2 µg His-MST1 (aa301-487) or His-MST2 (aa279-491) for 12 h at 4 °C; SDS-PAGE and Coomassie blue staining; conditions: both partners purified
# His-MST2 (aa279-491) = biological target: T2, His-MST2 (aa279-491); assay: as above; conditions: both partners purified
binder,measurement,setting,value
B1,binding result,His-MST1 (aa301-487),binds
same,binding result,His-MST2 (aa279-491),binds
